One assay deals with BTN2A1 B30.2 domain (UniProt Q7KYR7). The experiment in a line: ITC. The following applies: with HMBPP.
The next assay addresses HMBPP. As to the kind of experiment: ITC.
Assay [1] addresses VpBTN3 butyrophilin full intracellular domain (BFI) (alpaca (Vicugna pacos)). The experiment in a line: ITC; with DMAPP. The following applies: domain or fragment.
Assay [2] shares this target. The experiment in a line: ITC; with IPP. Conditions: domain or fragment.
For assay [3] the target is unchanged. The experiment in a line: ITC; with HMBPP. Conditions: domain or fragment.

The source of these data is article PMC10533412, “Phosphoantigens glue butyrophilin 3A1 and 2A1 to activate Vγ9Vδ2 T cells” (Nature, 2023).

BTN2A1 B30.2 domain, sequence (Q7KYR7 whole entry, looked up, tested part not stated): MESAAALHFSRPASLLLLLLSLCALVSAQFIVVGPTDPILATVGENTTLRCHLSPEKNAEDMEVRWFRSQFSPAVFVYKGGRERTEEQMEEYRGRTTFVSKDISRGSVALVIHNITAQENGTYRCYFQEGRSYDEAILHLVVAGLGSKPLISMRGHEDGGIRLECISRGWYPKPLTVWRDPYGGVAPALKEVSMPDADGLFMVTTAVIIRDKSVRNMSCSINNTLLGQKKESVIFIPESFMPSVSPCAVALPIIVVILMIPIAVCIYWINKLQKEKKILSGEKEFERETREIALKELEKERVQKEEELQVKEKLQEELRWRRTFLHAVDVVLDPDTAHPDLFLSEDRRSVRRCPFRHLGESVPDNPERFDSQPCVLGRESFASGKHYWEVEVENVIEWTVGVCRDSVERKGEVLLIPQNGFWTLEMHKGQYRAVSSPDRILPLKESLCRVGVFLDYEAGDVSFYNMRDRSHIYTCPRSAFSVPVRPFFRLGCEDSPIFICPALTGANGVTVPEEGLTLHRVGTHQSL

Turning to BTN3A3 B30.2 R351H, the Kd with BTN2A1 B30.2 domain was determined as 0.46 µM; with HMBPP it was 10.9 µM.

For the substance “VpBTN2 butyrophilin full intracellular domain (BFI)”, the figures for the Kd in assay [1], in assay [2] and in assay [3] were 46.5 µM, 191 µM and 0.658 µM, respectively.
